From US7981863

Target: VEGF receptor Flk-1 on rat neural stem cells (rat) (UniProt O08775)
Assay: cell-based or functional assay

Sequence of VEGF receptor Flk-1 on rat neural stem cells (rat) (O08775 20-1343): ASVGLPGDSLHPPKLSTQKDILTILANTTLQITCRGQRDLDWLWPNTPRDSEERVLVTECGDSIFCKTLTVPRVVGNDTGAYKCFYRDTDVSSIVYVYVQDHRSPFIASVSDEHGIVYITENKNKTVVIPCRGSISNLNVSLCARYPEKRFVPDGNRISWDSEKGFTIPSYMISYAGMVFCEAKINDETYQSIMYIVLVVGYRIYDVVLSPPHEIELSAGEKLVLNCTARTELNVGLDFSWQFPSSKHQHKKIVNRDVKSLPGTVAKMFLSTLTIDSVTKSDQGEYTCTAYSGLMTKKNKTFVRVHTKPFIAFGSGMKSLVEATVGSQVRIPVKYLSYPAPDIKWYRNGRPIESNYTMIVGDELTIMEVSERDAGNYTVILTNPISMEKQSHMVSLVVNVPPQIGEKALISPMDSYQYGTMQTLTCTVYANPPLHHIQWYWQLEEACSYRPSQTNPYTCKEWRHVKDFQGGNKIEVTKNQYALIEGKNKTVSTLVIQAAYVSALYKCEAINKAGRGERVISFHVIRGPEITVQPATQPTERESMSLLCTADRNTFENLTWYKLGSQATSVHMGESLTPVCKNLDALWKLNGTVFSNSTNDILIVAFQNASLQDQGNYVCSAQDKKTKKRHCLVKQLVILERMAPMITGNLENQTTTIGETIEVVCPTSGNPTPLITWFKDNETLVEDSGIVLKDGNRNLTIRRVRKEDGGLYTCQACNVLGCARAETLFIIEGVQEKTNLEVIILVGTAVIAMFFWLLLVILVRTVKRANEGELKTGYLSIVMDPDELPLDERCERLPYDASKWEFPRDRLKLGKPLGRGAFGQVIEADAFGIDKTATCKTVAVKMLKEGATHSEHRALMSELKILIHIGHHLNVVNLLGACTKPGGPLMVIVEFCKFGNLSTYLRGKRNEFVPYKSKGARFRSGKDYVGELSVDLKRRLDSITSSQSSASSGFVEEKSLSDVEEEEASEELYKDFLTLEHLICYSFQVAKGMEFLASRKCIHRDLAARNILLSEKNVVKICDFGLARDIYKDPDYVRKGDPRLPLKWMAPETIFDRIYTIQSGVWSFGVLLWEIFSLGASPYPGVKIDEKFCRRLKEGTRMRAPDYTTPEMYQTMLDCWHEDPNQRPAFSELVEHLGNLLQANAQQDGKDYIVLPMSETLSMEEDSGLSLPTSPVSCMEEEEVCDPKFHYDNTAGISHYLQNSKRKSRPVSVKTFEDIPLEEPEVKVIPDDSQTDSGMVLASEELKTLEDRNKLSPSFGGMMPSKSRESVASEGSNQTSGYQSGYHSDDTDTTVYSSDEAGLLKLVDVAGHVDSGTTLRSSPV

- ED50 of expansion of neural stem cell cultures (cell number after 7 days): 10 ng/mL
- concentration of maximal stimulation of neural stem cell expansion: 50 ng/mL
Substance: mouse recombinant VEGF164 (from UniProt Q00731 27-190) (ligand)
